This passage reports non-specific binding call results from the emibetuzumab library of Makowski et al. (2022).

B1: VH:VL chains; a variant is named by its letters at X, in order (parent)
chain 1: QVQLVQSGAEVKKPGASVKVSCKASGYTFTDYXMHWVRQAPGQGLEWMGXVNPNXXXTTYNQKFEGRVTMTTDTSTSTAYMELRSLRSDDTAVYYCARXNXLDXWGQGTTVTVSS
chain 2: DIQMTQSPSSLSASVGDRVTITCSVSSSVSSIYLHWYQQKPGKAPKLLIYSTSNLASGVPSRFSGSGSGTDFTLTISSLQPEDFATYYCQVYSGYPLTFGGGTKVEIK

Variants of B1 are the subject of this series. Description: yeast display scFab, FACS + sequencing. Summed up: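 Non-specific binding was called from deep sequencing of sorted yeast cells displaying a heavy-chain CDR mutant scFab library. Cells labelled with anti-Myc and biotinylated ovalbumin (260 μg/mL in PBSB, 3 h, room temperature) or soluble membrane proteins (130 μg/mL, 20 min on ice) were FACS-sorted, collecting the top 25% and bottom 10% of binders from two replicates. A sequence was positive when present in ≥3 of 4 pooled positive samples and absent from all negatives, and negative under the converse rule.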
For STAGSASD, the non-specific binding call was “no binding”.
Then YRRRGYVF, with “binds”; and YRRRGYVA, with “binds”.
As for YRRRGYVV, the non-specific binding call was “binds”.
For YRRRGYVD, the non-specific binding call is listed as “binds”.
The value for YTAGSDWY was “no binding”.
As for YRRRGYWA, the non-specific binding call is “binds”.
Turning to FRTGGAVA, the non-specific binding call is reported as “binds”.
Turning to STAESDVA, the non-specific binding call is “no binding”.
On to SRTGSDVD, for which the non-specific binding call is reported as “no binding”.
Then SRTRGFVV, with “binds”.
The value for YRRRGYAA was “binds”; that for VRTGGAAA was “binds”; that for FRTKGAWV was “binds”.
On to VRTKADAV, for which the non-specific binding call is on record as “no binding”.
For YRTRGAAA, the non-specific binding call was “binds”.
Consider YRTRAAWD, for which the non-specific binding call was “binds”.
For the variant YRTKASLD, the non-specific binding call is “binds”.
In the case of YRRRGYGD, the non-specific binding call is “binds”.
Then YRTEGAVA, with “binds”.
Then FRTGGSAD, with “binds”; and YTARGSAA, with “binds”; and ARTRTAWY, with “binds”.
The value for YRTEDVGA was “binds”.
Turning to DTAEDFGV, the non-specific binding call is “no binding”.
Then YRTGDDVF, with “no binding”; and ATAGSASD, with “no binding”.
The value for FRTGDDWV was “no binding”.
In the case of DRTGDSSS, the non-specific binding call is given as “no binding”.
With VRTKAVAY, the non-specific binding call is listed as “binds”.
Then VTAGDSAD, with “no binding”.
Then VRTEDDWY, with “no binding”; and VRTEDDWS, with “no binding”; and VRTEDDWF, with “no binding”.
The value for VRTEDDWV was “no binding”; that for YRTRDSAS was “no binding”; that for FRTRDSLD was “binds”.
For the variant DTATADWA, the non-specific binding call is reported as “no binding”.
Consider DRTGDDVA, for which the non-specific binding call was “no binding”.
In the case of DRTGDDVY, the non-specific binding call is on record as “no binding”.
Take STEASYLS: the non-specific binding call is listed as “no binding”.
The value for VRTEDDAS was “no binding”; that for VRTEDSWA was “no binding”; that for VRTEDSWS was “no binding”.
The value for YRTGDSAA was “binds”; that for YRTKGAAD was “binds”.
On to VRTAASGD, for which the non-specific binding call is reported as “binds”.
For YRTRSSWD, the non-specific binding call is “binds”.
The value for YTAGSDGA was “no binding”; that for YTAGSDGV was “no binding”; that for VRTRGAVD was “binds”.
For the variant YRRRSAVA, the non-specific binding call was “binds”.
The value for FRTRGVGA was “binds”; that for YTAAADLV was “binds”.
The value for FRRTDFVA chain 1 C22Y was “binds”.
The value for FRTRSSGV was “binds”; that for YRTAGAAD was “binds”.
For the variant YRTRGASD, the non-specific binding call is reported as “binds”.
The value for VRTGDDGV was “no binding”.
The value for VRTRAAVD was “binds”; that for YRTGGAGD was “no binding”; that for YRTRSAWD was “binds”.
Then YRTRGYAV, with “binds”; and VRTADVGV, with “binds”; and YRTRGSLY, with “binds”.
Regarding FRTGDSVD, the non-specific binding call is on record as “no binding”.
The value for ATAGSDGV was “no binding”; that for YRRRSSLA was “binds”.
As to VRRTSAAS, the non-specific binding call is reported as “binds”.
Take FRTEGSAD: the non-specific binding call is listed as “binds”.
For the variant VTAGDAGD, the non-specific binding call is recorded as “no binding”.
The value for VTAGDDAV was “no binding”.
Then FTAGGAAD, with “binds”.
Then YRTGGAWD, with “binds”; and FRTGDSLV, with “no binding”.
Consider YRTRSAVY, for which the non-specific binding call was “binds”.
Then YRTRSAVV, with “binds”; and FRTRDSGY chain 1 V68I, with “binds”.
The value for FRTKSDLA was “no binding”.
In the case of YRRRGYLV, the non-specific binding call is “binds”.
Then YRTGDSGD, with “no binding”; and YTATGFAV, with “binds”.
Then YRTGAALS, with “binds”.
The value for YTARDVGV was “binds”.
In the case of SRTRGFGS, the non-specific binding call was “binds”.
The value for YRRRSSVD was “binds”.
Consider VRTKDFSY, for which the non-specific binding call is recorded as “no binding”.
Take VRTRGALS: the non-specific binding call is “binds”.
Then VRRTDFVA, with “binds”.
Consider FRTRDAAA, for which the non-specific binding call is reported as “binds”.
Then YRTRDSGV, with “binds”; and YRRRGVSA, with “binds”; and STATADVA, with “no binding”.
In the case of VRTEDSSV, the non-specific binding call was “no binding”.
Consider FTARSAGF, for which the non-specific binding call is on record as “binds”.
Then VRTRGSWD, with “binds”.
The value for FRTEGSGY was “binds”; that for YRRRGYSD was “binds”.
Then YRRRGYSS, with “binds”; and FRTADVGV, with “binds”; and VTATADWA, with “no binding”.
For VRTEDALD, the non-specific binding call is “no binding”.
As for VRTEDALV, the non-specific binding call was “no binding”.
The value for VRTEDSGD was “no binding”.
On to YRTRDVGF, for which the non-specific binding call is “binds”.
The value for FRTRDALD was “binds”; that for VRTRGDGA was “binds”; that for YRTGAASD was “binds”.
For YRTGGSGD, the non-specific binding call is recorded as “binds”.
Then YRTGGSGA, with “binds”; and YRTRDSLD, with “no binding”; and YRTRDAWV, with “binds”.
Then FRTRDAGD, with “no binding”; and YRTADDWV, with “binds”; and STATADWV, with “no binding”.
FRTRGAVV: the non-specific binding call is listed as “binds”.
Then VRTRSFGA, with “binds”.
The value for VRTRSSGV was “binds”; that for SRTRDAGD was “no binding”; that for YRTRGSWD was “binds”.
